Results from PMC9599461, “Stereoselectivity in the Membrane Transport of Phenylethylamine Derivatives by Human Monoamine Transporters and Organic Cation Transporters 1, 2, and 3” (Biomolecules, 2022).
Several values for one entry are separate records, joined by “and”; a condition that tells them apart may be missing. Identical values can stand only once.

T1: OCT2 (wild-type) (Homo sapiens, UniProt O15244)
T1 sequence (O15244 1-555 S270A): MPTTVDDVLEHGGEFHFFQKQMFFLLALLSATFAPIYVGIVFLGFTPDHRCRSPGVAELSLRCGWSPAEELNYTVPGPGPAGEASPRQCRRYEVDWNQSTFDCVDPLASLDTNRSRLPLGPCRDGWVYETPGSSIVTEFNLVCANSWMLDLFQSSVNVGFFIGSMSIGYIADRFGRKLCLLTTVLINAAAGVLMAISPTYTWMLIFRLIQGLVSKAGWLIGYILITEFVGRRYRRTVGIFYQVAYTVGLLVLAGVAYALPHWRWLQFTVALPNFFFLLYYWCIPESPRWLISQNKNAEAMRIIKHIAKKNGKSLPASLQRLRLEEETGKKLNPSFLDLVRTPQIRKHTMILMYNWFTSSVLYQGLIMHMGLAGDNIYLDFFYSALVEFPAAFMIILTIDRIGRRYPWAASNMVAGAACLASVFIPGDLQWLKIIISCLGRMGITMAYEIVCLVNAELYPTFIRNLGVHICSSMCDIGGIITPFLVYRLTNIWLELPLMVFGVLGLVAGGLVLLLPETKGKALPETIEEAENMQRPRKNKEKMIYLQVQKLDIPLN


Assays:
OCT2 A270S variant = test: in vitro; conditions: human, Stereoselectivity OCT2_A270S, 100 μM racemic substance, two minutes; uptake ratio of enantiomers, given as for (S);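 note: uptake into HEK293 cells stably overexpressing human OCT2 variants, intracellular enantiomers quantified by chiral HPLC-MS/MS and normalized to total protein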
OCT2 (wild-type) = biological target: T1, OCT2 (wild-type); test: Stereoselective uptake into OCT2 (wild-type)-overexpressing HEK293 cells; conditions: human, Stereoselectivity OCT2_WT, 100 μM racemic substance, two minutes; uptake ratio of enantiomers, given as for (S)
[1] = test system: human neuroblastoma cells; set-up: method as in PMID 9085193; conditions: cited from earlier work
[2] = substrate: [H][C@](O)(CNC)c1ccc(O)cc1; test: cells, lysate or membranes; conditions: other: HEK293 cells overexpressing human OCT2; racemic substrate, two minutes; net uptake minus empty vector control; 37.0 °C
[3] = substrate: COc1cc(C(O)CN)ccc1O; test: cells, lysate or membranes; conditions: other: HEK293 cells overexpressing human OCT2; racemic substrate, two minutes; net uptake minus empty vector control; 37.0 °C
[4] = substrate: NC[C@H](O)c1ccc(O)cc1; test: cells, lysate or membranes; conditions: other: HEK293 cells overexpressing human OCT2; racemic substrate, two minutes; net uptake minus empty vector control; 37.0 °C
[5] = substrate: CNCC(O)c1ccc(O)c(OC)c1; test: cells, lysate or membranes; conditions: other: HEK293 cells overexpressing human OCT2; racemic substrate, two minutes; net uptake minus empty vector control; 37.0 °C
[6] = substrate: CNC[C@@H](O)c1ccc(O)cc1; test: cells, lysate or membranes; conditions: other: HEK293 cells overexpressing human OCT2; racemic substrate, two minutes; net uptake minus empty vector control; 37.0 °C
[7] = substrate: CNC[C@H](O)c1cccc(O)c1; test: cells, lysate or membranes; conditions: other: HEK293 cells overexpressing human OCT2; racemic substrate, two minutes; net uptake minus empty vector control; 37.0 °C
[8] = substrate: NCC(O)c1cccc(O)c1; test: cells, lysate or membranes; conditions: other: HEK293 cells overexpressing human OCT2; racemic substrate, two minutes; net uptake minus empty vector control; 37.0 °C
[9] = substrate: CNCC(O)c1ccccc1; test: cells, lysate or membranes; conditions: other: HEK293 cells overexpressing human OCT2; racemic substrate, two minutes; net uptake minus empty vector control; 37.0 °C
[10] = substrate: CNC[C@@H](O)c1cccc(O)c1; test: cells, lysate or membranes; conditions: other: HEK293 cells overexpressing human OCT2; racemic substrate, two minutes; net uptake minus empty vector control; 37.0 °C

| Molecule | selectivity ratio at 2 min, 100 μM (OCT2 A270S variant) | selectivity ratio at 2 min, 100 μM (OCT2 (wild-type)) | Cytotoxicity of (S)-enantiomer versus (R)-enantiomer [1] | Km [2] [µM] | Vmax [2] | Km [3] | Vmax [3] | Km [4] [µM] | Vmax [4] | Km [5] | Km [6] [µM] | Vmax [6] | Km [7] [µM] | Vmax [7] | Km [8] | Vmax [8] | Km [9] | Vmax [9] | Km [10] [µM] | Vmax [10] |
| --- | --- | --- | --- | --- | --- | --- | --- | --- | --- | --- | --- | --- | --- | --- | --- | --- | --- | --- | --- | --- |
| CC1NCCc2cc(O)c(O)cc21 (centres unmarked) [Salsolinol] | 1.1 | 1.06 | almost two-fold higher |  |  |  |  |  |  |  |  |  |  |  |  |  |  |  |  |  |
| OCT2 (Homo sapiens; S270A) (protein) MPTTVDDVLEHGGEFHFFQKQMFFLLALLSATFAPIYVGIVFLGFTPDHRCRSPGVAELSLRCGWSPAEELNYTVPGPGPAGEASPRQCRRYEVDWNQSTFDCVDPLASLDTNRSRLPLGPCRDGWVYETPGSSIVTEFNLVCANSWMLDLFQSSVNVGFFIGSMSIGYIADRFGRKLCLLTTVLINAAAGVLMAISPTYTWMLIFRLIQGLVSKAGWLIGYILITEFVGRRYRRTVGIFYQVAYTVGLLVLAGVAYALPHWRWLQFTVALPNFFFLLYYWCIPESPRWLISQNKNAEAMRIIKHIAKKNGKSLPASLQRLRLEEETGKKLNPSFLDLVRTPQIRKHTMILMYNWFTSSVLYQGLIMHMGLAGDNIYLDFFYSALVEFPAAFMIILTIDRIGRRYPWAASNMVAGAACLASVFIPGDLQWLKIIISCLGRMGITMAYEIVCLVNAELYPTFIRNLGVHICSSMCDIGGIITPFLVYRLTNIWLELPLMVFGVLGLVAGGLVLLLPETKGKALPETIEEAENMQRPRKNKEKMIYLQVQKLDIPLN |  |  |  | 443 | 10877 pmol × mg Protein^−1 × min^−1 | 464 µM and 613 µM | 2747 pmol × mg Protein^−1 × min^−1 and 5665 pmol × mg Protein^−1 × min^−1 | 636 | 25182 pmol × mg Protein^−1 × min^−1 | 54.7 µM and 68.1 µM | 214 | 5307 pmol × mg Protein^−1 × min^−1 | 212 | 6263 pmol × mg Protein^−1 × min^−1 | 911 µM and 582 µM | 33143 pmol × mg Protein^−1 × min^−1 and 15157 pmol × mg Protein^−1 × min^−1 | 12.8 µM and 19.3 µM | 329 pmol × mg Protein^−1 × min^−1 and 261 pmol × mg Protein^−1 × min^−1 | 112 | 3068 pmol × mg Protein^−1 × min^−1 |
